In assay [1] the target is T1, FcγRIIb (human, UniProt P31994 43-217).
T1 construct: extracellular domain; also called 2b; FcgRIIb
T1 sequence (looked up): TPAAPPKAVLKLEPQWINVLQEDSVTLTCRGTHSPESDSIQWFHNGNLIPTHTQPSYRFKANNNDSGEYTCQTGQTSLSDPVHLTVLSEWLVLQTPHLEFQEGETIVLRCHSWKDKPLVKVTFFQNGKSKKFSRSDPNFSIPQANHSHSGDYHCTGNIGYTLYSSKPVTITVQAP
In words: SPR (Biacore), binding relative to GpH7-B3/GpL16-k0 = 100. On the technique in general: Surface plasmon resonance follows binding to a sensor surface in real time, without labels.

The target of assay [2] is T1, FcγRIIb. Briefly: SPR (Biacore), binding relative to GpH7-A5/GpH7-B3/GpL16-k0 = 100. As for the experimental part: Analysis of interaction between objective antibody and the FcγR was carried out using Biacore T100 (GE Healthcare). HBS-EP+ (GE Healthcare) was used as the running buffer, and the measurement temperature was set to 25° C. Chips produced by immobilizing the antigen peptide by the amine coupling method to a Series S Sencor Chip CM5 (GE Healthcare), or alternatively, chips produced by allowing preliminarily biotinylated antigen peptides to interact with and immobilize onto a Series S Sensor Chip SA (certified) (GE Healthcare) were used. Antibodies of interest were captured onto an antigen peptide-immobilized chip, and allowed to interact to each FcγR diluted with running buffer. To regenerate and repeatedly use the chip, the antibodies captured on the chip were washed off by reacting 10 mM glycine-HCl, pH 1.5.
The FcγR-binding activity of each antibody was assessed primarily using as an indicator the FcγR-binding activity and dissociation constant for FcγR.

The text below walks through data of patent publication US20180155451A1 (published 2018).

B1: GpH7-B3 variant Y296_20W/GpL16-k0 (antibody, human IgG1, kappa)
heavy: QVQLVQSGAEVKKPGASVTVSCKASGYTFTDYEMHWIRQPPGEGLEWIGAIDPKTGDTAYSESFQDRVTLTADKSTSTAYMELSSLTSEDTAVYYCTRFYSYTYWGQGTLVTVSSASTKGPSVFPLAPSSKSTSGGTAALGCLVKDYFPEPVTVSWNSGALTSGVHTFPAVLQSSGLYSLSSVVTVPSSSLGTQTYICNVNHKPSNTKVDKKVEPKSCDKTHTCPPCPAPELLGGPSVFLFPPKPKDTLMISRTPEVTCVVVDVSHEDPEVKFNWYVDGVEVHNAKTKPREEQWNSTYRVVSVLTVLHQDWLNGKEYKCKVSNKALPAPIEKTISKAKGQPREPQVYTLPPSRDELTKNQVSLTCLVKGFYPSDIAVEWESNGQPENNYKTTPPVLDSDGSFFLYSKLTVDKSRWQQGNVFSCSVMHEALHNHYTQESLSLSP
light: DIVMTQSPLSLPVTPGEPASISCQASESLVHSNRNTYLHWYLQKPGQSPQLLIYKVSNRFSGVPDRFSGSGSGTDFTLKISRVEAEDVGVYYCSQNTHVPPTFGQGTKVEIERTVAAPSVFIFPPSDEQLKSGTASVVCLLNNFYPREAKVQWKVDNALQSGNSQESVTEQDSKDSTYSLSSTLTLSKADYEKHKVYACEVTHQGLSSPVTKSFNRGEC
notes: also called Ho Ab Y296_20W
For the molecule B1, the Ho/Con_2b with FcγRIIb [1] is 103 % of control.

B2: GpH7-A5/GpH7-B3 variant G237_02A/GpL16-k0 (antibody, human IgG1, kappa)
heavy 1: not shown
heavy 2: not shown
light: B1 light
notes: also called He Ab G237_02A
As to B2, the He/Con_2b with FcγRIIb [2] is 124 % of control.

B3: GpH7-A5/GpH7-B3 variant K326_07I/GpL16-k0 (antibody, human IgG1, kappa)
heavy 1: not shown
heavy 2: not shown
light: B1 light
notes: also called He Ab K326_07I
On to B3, for which the He/Con_2b with FcγRIIb [2] was 199 % of control.

B4: GpH7-A5/GpH7-B3 variant L328_02A/GpL16-k0 (antibody, human IgG1, kappa)
heavy 1: not shown
heavy 2: not shown
light: B1 light
notes: also called He Ab L328_02A
Consider B4, for which the He/Con_2b in the assay with FcγRIIb [2] was 144 % of control.

B5: GpH7-A5/GpH7-B3 variant G237_10E/GpL16-k0 (antibody, human IgG1, kappa)
heavy 1: not shown
heavy 2: not shown
light: B1 light
notes: also called He Ab G237_10E
B5: the He/Con_2b with FcγRIIb [2] was 114 % of control.

B6: GpH7-A5/GpH7-B3 variant G237_18N/GpL16-k0 (antibody, human IgG1, kappa)
heavy 1: not shown
heavy 2: not shown
light: B1 light
notes: also called He Ab G237_18N
In the case of B6, the He/Con_2b with FcγRIIb [2] was 180 % of control.

B7: GpH7-A5/GpH7-B3 variant L235_20W/GpL16-k0 (antibody, human IgG1, kappa)
heavy 1: not shown
heavy 2: not shown
light: B1 light
notes: also called He Ab L235_20W
For the molecule B7, in the assay with FcγRIIb [2], the He/Con_2b was 147 % of control.

B8: GpH7-A5/GpH7-B3 variant N325_04F/GpL16-k0 (antibody, human IgG1, kappa)
heavy 1: not shown
heavy 2: not shown
light: B1 light
notes: also called He Ab N325_04F
Take B8: the He/Con_2b with FcγRIIb [2] was 143 % of control.

B9: GpH7-A5/GpH7-B3 variant N325_09D/GpL16-k0 (antibody, human IgG1, kappa)
heavy 1: not shown
heavy 2: not shown
light: B1 light
notes: also called He Ab N325_09D
Regarding B9, the He/Con_2b in the assay with FcγRIIb [2] was 124 % of control.

B10: GpH7-A5/GpH7-B3 variant N325_08L/GpL16-k0 (antibody, human IgG1, kappa)
heavy 1: not shown
heavy 2: not shown
light: B1 light
notes: also called He Ab N325_08L
Consider B10, for which the He/Con_2b in the assay with FcγRIIb [2] is 197 % of control.

B11: GpH7-A5/GpH7-B3 variant L234_10E/GpL16-k0 (antibody, human IgG1, kappa)
heavy 1: not shown
heavy 2: not shown
light: B1 light
notes: also called He Ab L234_10E
As for B11, in the assay with FcγRIIb [2], the He/Con_2b is 118 % of control.

B12: GpH7-A5/GpH7-B3 variant K326_08L/GpL16-k0 (antibody, human IgG1, kappa)
heavy 1: not shown
heavy 2: not shown
light: B1 light
notes: also called He Ab K326_08L
As to B12, the He/Con_2b with FcγRIIb [2] is 177 % of control.

B13: GpH7-A5/GpH7-B3 variant P238_09D/GpL16-k0 (antibody, human IgG1, kappa)
heavy 1: not shown
heavy 2: not shown
light: B1 light
notes: also called He Ab P238_09D
On to B13, for which the He/Con_2b in the assay with FcγRIIb [2] was 221 % of control.

B14: GpH7-A5/GpH7-B3 variant N325_07I/GpL16-k0 (antibody, human IgG1, kappa)
heavy 1: not shown
heavy 2: not shown
light: B1 light
notes: also called He Ab N325_07I
Take B14: the He/Con_2b with FcγRIIb [2] is 171 % of control.

B15: GpH7-A5/GpH7-B3 variant G237_04F/GpL16-k0 (antibody, human IgG1, kappa)
heavy 1: not shown
heavy 2: not shown
light: B1 light
notes: also called He Ab G237_04F
Take B15: the He/Con_2b in the assay with FcγRIIb [2] was 149 % of control.

B16: GpH7-A5/GpH7-B3 variant P238_03V/GpL16-k0 (antibody, human IgG1, kappa)
heavy 1: not shown
heavy 2: not shown
light: B1 light
notes: also called He Ab P238_03V
B16: the He/Con_2b with FcγRIIb [2] is 120 % of control.

B17: GpH7-A5/GpH7-B3 variant I336_06M/GpL16-k0 (antibody, human IgG1, kappa)
heavy 1: not shown
heavy 2: not shown
light: B1 light
notes: also called He Ab I336_06M
Turning to B17, the He/Con_2b with FcγRIIb [2] was 101 % of control.

B18: GpH7-A5/GpH7-B3 variant H268_15Y/GpL16-k0 (antibody, human IgG1, kappa)
heavy 1: not shown
heavy 2: not shown
light: B1 light
notes: also called He Ab H268_15Y
In the case of B18, in the assay with FcγRIIb [2], the He/Con_2b was 106 % of control.

B19: GpH7-A5/GpH7-B3 variant L328_10E/GpL16-k0 (antibody, human IgG1, kappa)
heavy 1: not shown
heavy 2: not shown
light: B1 light
notes: also called He Ab L328_10E
Consider B19, for which the He/Con_2b with FcγRIIb [2] is 172 % of control.

B20: GpH7-A5/GpH7-B3 variant H268_05P/GpL16-k0 (antibody, human IgG1, kappa)
heavy 1: not shown
heavy 2: not shown
light: B1 light
notes: also called He Ab H268_05P
As to B20, in the assay with FcγRIIb [2], the He/Con_2b is 116 % of control.

B21: GpH7-A5/GpH7-B3 variant G237_06M/GpL16-k0 (antibody, human IgG1, kappa)
heavy 1: not shown
heavy 2: not shown
light: B1 light
notes: also called He Ab G237_06M
Consider B21, for which the He/Con_2b in the assay with FcγRIIb [2] was 130 % of control.

B22: GpH7-A5/GpH7-B3 variant L328_13S/GpL16-k0 (antibody, human IgG1, kappa)
heavy 1: not shown
heavy 2: not shown
light: B1 light
notes: also called He Ab L328_13S
In the case of B22, in the assay with FcγRIIb [2], the He/Con_2b was 149 % of control.

B23: GpH7-A5/GpH7-B3 variant K326_20W/GpL16-k0 (antibody, human IgG1, kappa)
heavy 1: not shown
heavy 2: not shown
light: B1 light
notes: also called He Ab K326_20W
For the molecule B23, the He/Con_2b with FcγRIIb [2] is 148 % of control.

B24: GpH7-A5/GpH7-B3 variant N325_03V/GpL16-k0 (antibody, human IgG1, kappa)
heavy 1: not shown
heavy 2: not shown
light: B1 light
notes: also called He Ab N325_03V
Consider B24, for which the He/Con_2b with FcγRIIb [2] was 111 % of control.

B25: GpH7-A5/GpH7-B3 variant I332_02A/GpL16-k0 (antibody, human IgG1, kappa)
heavy 1: not shown
heavy 2: not shown
light: B1 light
notes: also called He Ab I332_02A
Consider B25, for which, in the assay with FcγRIIb [2], the He/Con_2b is 103 % of control.
